These results are taken from patent US20040241222A1, “Lipid-polymer-conjugates compositions” (priority 2001, published 2004).

Data set [1] can be described thus: Particle size and polydispersity of liposomes by dynamic light scattering. It counts as physicochemical. Conditions: prednisolone phosphate-containing DPPC/cholesterol liposomes, light scattering (Malvern Zeta-sizer). How it is done:
The lipid loss during preparation of the liposomes was 25%, determined by comparing the final radioactivity of the preparation with the activity before the extrusion procedure. The suspension of liposomes was stored in a nitrogen atmosphere at 4° C.
Liposomes were prepared using the film method, as described in example 23. Instead of egg phosphatidylcholine dipalmitoyl phosphatidylcholine was used. 5 mM HEPES buffer was added to the dry lipid film and shaken during 5 minutes in the presence of glass beads in order to enable complete hydration of the lipid film. The liposomes were sized by extrusion 12 times through 2 stacked PC membranes having pore sizes of […]. The resulting liposome dispersions were dialysed (MWCO 10,000) and average particle sizes were determined using dynamic light scattering technique. See table 1 for the properties of the liposomal preparations.

Data set [2] in a line: Encapsulation efficiency of prednisolone phosphate in liposomes (HPLC). It counts as physicochemical. Conditions: prednisolone phosphate-containing DPPC/cholesterol liposomes.
Data set [3] can be described thus: Kinetics of 3H-labelled liposomes containing lipid-polymer-conjugates after a single intravenous injection to the rat (blood circulation time). It counts as in vivo. As to conditions: intravenous administration to rats, compared with corresponding PEG-grafted liposomes. As for the experimental part: 100 μl was transferred to a scintillation vial (20 ml).
100 μl of Solvable was added. This was incubated for at least 1 hour.
100 μl of 1 mM EDTA and 200 μl H2O2 30% were added. This mixture was incubated for 24 hours at room temperature and overnight at 50° C. thereafter.
Ultima Gold (10 ml) was added as the scintillation fluid.
Radioactivity was measured by LSC.
The increase of blood circulation time was assessed, wherein: […]

Data set [4] can be described thus: Storage stability of liposomal preparations (percentage encapsulated prednisolone phosphate versus time). It counts as physicochemical. As to conditions: prednisolone phosphate-containing liposome suspensions, nitrogen atmosphere, 4° C. (FIG. 3). An excerpt:
FIG. 3 is a graphical representation of the percentage encapsulated prednisolone phosphate in PEG-DSPE and PHEA-DODASuc, respectively, containing liposomal preparations versus time (example 26).

“PEG-distearoylphosphatidylethanol-amine [PEG-DSPE]” displayed a Mean particle size in data set [1] of roughly 90 nm. In addition, the “Encapsulation efficiency of the prednisolone phosphate” value in data set [2] was found to be 2.6%.

As for PHEG-Diaminobutane DODASuc [Ex. 8.1], the “Blood circulation time of the liposomes” value in data set [3] is listed as “Results similar to those obtained with the corresponding PEG-grafted liposomes”.

“Poly(2-hydroxyethyl)-L-asparagine DODASuc [Ex. 14]”: in data set [3], the “Blood circulation time of the liposomes” value is given as “Results similar to those obtained with the corresponding PEG-grafted liposomes”. The “Storage stability compared with PEG-DSPE reference liposomes” value in data set [4] was “performed slightly better”.

As for “Poly(D,L-methionine Sulfoxide) DODASuc [Ex. 18]”, the “Blood circulation time of the liposomes” value in data set [3] is “Results similar to those obtained with the corresponding PEG-grafted liposomes”.
